Experimental data taken from the supplement of paper PMC12042874.
± gives the uncertainty stated by the source.

Assay: amyloid nucleation score (Sup35N fusion, yeast selection) (log enrichment); library NNK2; higher = more nucleation; inactive = no reads after selection
Outline: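 Peptides of 20 random codons, each fused to Sup35N, were expressed in psi-negative yeast. Cells were induced with 100 μM copper sulfate for 24 hours and grown 7 days at 30°C on medium lacking adenine and uracil, and plasmid inserts before and after selection were Illumina-sequenced. Nucleation scores are DiMSum log enrichments of output over input reads, centred on the mode score of non-aggregating sequences, and sequences under 100 input reads were excluded.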

| Substance | amyloid nucleation score |
| --- | --- |
| GKNMRYFRQTGCH | -0.39 ± 0.21 |
| EWSFLMNFSIMYRHFRVLAL | -1.35 ± 0.78 |
| FYINTYQVSQGFIA | inactive |
| CLFVQSRIDYALNNLTVC | -0.755 ± 0.48 |
| FVDVVPGKSGASET | -0.126 ± 0.49 |
| IMYLVENMCHDKKFYCSVNL | 4.34 ± 0.087 |
| GCKLPYE | -1.39 ± 0.75 |
| EALSLLSR | -0.22 ± 1 |
| RGFCN | -1 ± 1.1 |
| NHESYWSKSSWFWLFNGVSQ | inactive |
| VSSWGMYYWFS | 0.06 ± 0.44 |
| TMILVCRRAFKCYLTQDWSD | 0.538 ± 0.3 |
| VFINRFHRVMLRAVIRQGVV | 0.31 ± 0.5 |
| SFYSDYNQLIISMGHWSSMN | 4.35 ± 0.11 |
| MICDLMAVVNVQSKWRYSDK | 5.052 ± 0.038 |
| ERGQGKHRNEGVHYNRWCGC | 2.15 ± 0.17 |
| KSCAVFYSSNYVSGSNYLFF | 6.369 ± 0.047 |
| SLLLKVMSR | -0.627 ± 0.79 |
| CCWVDLGLKRMYESLFDR | 4.14 ± 0.051 |
| LQASDKGKLLRTIPLRHYVP | 1.02 ± 0.33 |
| GQACRMYTVSVFVILNLGYQ | 2.53 ± 0.076 |
| NPLFHSPV | 0.01 ± 0.65 |
| TRISMRLWFSGRELIEALKF | -0.29 ± 0.65 |
| DDFRQVKREDWHWSLSAVLF | 0.36 ± 0.62 |
| FLACRSLGKPRMFDRSLRYV | 0.185 ± 0.44 |

| Substance | amyloid nucleation score |
| --- | --- |
| VMRNKILF | -0.341 ± 0.79 |
| VYTHSGIVY | -0.82 ± 0.62 |
| ADEEFRRFIVPSFLPGSCSS | -0.08 ± 0.39 |
| CMEKFTLELTVIIRHSNQLG | 0.225 ± 0.31 |
| GFWITVESNNTYNRFLDISC | 2.67 ± 0.089 |
| KDFFSVVSH | 0.573 ± 0.66 |
| YFWSRLRFVCRDRSGKNYCS | -0.138 ± 0.76 |
| DSRTFGITYYNDVLITGLCR | -0.709 ± 0.39 |
| PYVHVYLWQSLKALVYLTCY | inactive |
| VMALSIMTMGTSVGFRDNGG | 4.38 ± 0.071 |
| CGLVAVNDYLGVRVGLFHIC | -1.01 ± 1.1 |
| YRFMTLVQHSYRCICLRLNA | -0.183 ± 0.33 |
| HQVSGSDWPRSDYLRCLTIA | 1.82 ± 0.19 |
| FGMLFGQDKTVHRSGLDLCG | 0.119 ± 0.5 |
| HEVVKFK | 0.016 ± 1.1 |
| KYVALALERFMLAAHGTSLT | -0.235 ± 0.33 |
| LDLICMDLWFWTNTS | -0.006 ± 0.4 |
| VFWSVYFDACLVFMTVSYLL | inactive |
| IFYRYFSVFNCPAICRQYRK | 6.382 ± 0.054 |
| QVAKAYFEEGRRDDFSYHGK | 0.171 ± 0.56 |
| SGLSAVGSLGVNIEISSFVR | -0.983 ± 0.78 |
| SSLWTCGFIELRPRVLSMGS | 0.327 ± 0.57 |
| SKNYSSWPNPHMIQGLLGSM | -0.735 ± 0.3 |
| VEFIVSWHGPAKRYPYATTL | 0.629 ± 0.34 |
| CKMYVET | 0.23 ± 0.38 |

| Substance | amyloid nucleation score |
| --- | --- |
| LLLFVILCNSNWLCWPR | inactive |
| VGPVMINSSSVTQCTGWNRT | 3.8 ± 0.091 |
| RFYCRRT | 0.199 ± 0.33 |
| VCSTEV | 0.32 ± 0.74 |
| KINCLFISLGNRSRVVRTS | 0.681 ± 0.37 |
| SRSLWYVLNYYV | 0.062 ± 0.29 |
| AQVEFLYNSLVHYFSIDNTG | inactive |
| TCYRSDRPIRRRVAFALTEG | 1.04 ± 0.41 |
| NEMGFSHISGEMCAP | -0.882 ± 0.24 |
| CARIWLRTWGKIRA | 0.092 ± 1.1 |
| FTSASQFNNTGFCLI | -0.23 ± 0.79 |
| KKVYVSDTIWMDYNNS | 3.93 ± 0.064 |
| MGTPTTEIGALTMGSEPFV | 1.24 ± 0.39 |
| STNCFRAFTHYPMYIGCVVM | -0.159 ± 0.8 |
| NGMRIGTDLGFYSRGMLRTQ | 0.162 ± 0.26 |
| NIFQGAICYQTYGGVFPYFL | 6.151 ± 0.042 |
| RQSKARLYCR | 0.397 ± 0.3 |
| VGAYPEEKR | -0.013 ± 0.38 |
| CRVFWKLKKRSIMHLPFDSG | 1.32 ± 0.34 |
| SFANVSVMSIYRAVNPSWRP | 5.56 ± 0.072 |
| DVGCAMPSYTRGWYVYSNLM | 0.58 ± 0.42 |
| YDPDFSGYCYFAIILYIIFS | -1.5 ± 0.62 |
| QTVQVRPVRYGSQSFRNFGW | -0.109 ± 0.49 |
| WFVGFSMAYWNERDAGRPGM | 1.8 ± 0.15 |
| RDLSLNFIHPLRFGY | inactive |

| Substance | amyloid nucleation score |
| --- | --- |
| IGHLPMMVLT | 1.42 ± 0.36 |
| LRFVEPTTCVWGRDLFGAHS | 0.545 ± 0.53 |
| WDSFLRLDFSMLSVLRREPR | 2.98 ± 0.18 |
| QIKRQGHLESPSRQR | 0.128 ± 0.37 |
| TRFGPPVHSKLCPPAMWPGW | 0.691 ± 0.23 |
| LSVGLNKYRNA | -0.919 ± 0.76 |
| CVPVYVKRIECHLPSGCTAV | -0.345 ± 0.3 |
| PTSDMWSCNNL | 0.961 ± 0.81 |
| VVGPFHFIVMMKVSKVRVKL | 6.212 ± 0.039 |
| YSCRIDF | 0.8 ± 0.54 |
| SIRSKGDILSCSRTTFC | 5.32 ± 0.071 |
| GGQEIAYILTSVSSLSNPMW | 3.24 ± 0.1 |
| MYLGH | -0.864 ± 1.1 |
| ILLNTSYVYLTDSMEFTVGL | 2.15 ± 0.14 |
| SWGNLWKSYCAK | -0.55 ± 0.49 |
| RRGDKRMVTDFTLLTTGGGR | 0.543 ± 0.33 |
| YRSVVDA | 0.077 ± 0.54 |
| WKLAHISLDFHFLYSR | -0.269 ± 0.61 |
| FYQRLMSLTTMYLIQRHSL | -0.038 ± 0.74 |
| SLVNATGRWINVVTNFRLNG | 7.565 ± 0.049 |
| TSYTWDHCGGHIKSRYSGVG | inactive |
| QALQFIVSQRL | 3.59 ± 0.11 |
| VRSLKTHRFPFLCERSKFMG | -0.987 ± 0.38 |
| VGIRCLRFFNMIVLEG | -0.059 ± 0.55 |
| FGLDLVFISFQARKCFVVMD | inactive |

| Substance | amyloid nucleation score |
| --- | --- |
| SRLVFS | inactive |
| SLTSGRLYEIIIRIYHASFM | -1.46 ± 0.34 |
| RCVKNKLWTYMGGNISYTSS | 2.14 ± 0.1 |
| VNLFVLDSRTNGVCFWELMT | -0.452 ± 0.55 |
| NSVFRTDCGKRGMVVPGRAH | 1.04 ± 0.35 |
| TSCFLLIQGIFGGLGITGMP | 2.97 ± 0.099 |
| PLMRGECGALLRLMFNTVS | inactive |
| ACVNYYNSEATIVVRKGRMG | 4.19 ± 0.071 |
| VMRVT | 5.22 ± 0.081 |
| SSRYSVIVVYMMGAPSLVGQ | inactive |
| GIWNLQYRREV | 0.596 ± 0.32 |
| AARFELYSNWS | 2.05 ± 0.21 |
| YDGANWRSKGWLDLFSIMKQ | -1.23 ± 0.75 |
| YNDVCLCNGSLGWKLVLE | -0.177 ± 1 |
| HLENGINIWDKLY | -0.363 ± 1.1 |
| IFGSWSSIMCLTKFKCSLGG | 2.8 ± 0.081 |
| LITRVSSYCCWCLGFTIWAL | -0.77 ± 1 |
| VVSKDDRDGNV | 3.14 ± 0.044 |
| GFVINFYLNGVALQRVILAF | inactive |
| LSLMHAQHSTMLDNSMTM | 0.621 ± 0.56 |
| IDYLDTCFAVCFVGYTVCPT | 0.111 ± 0.5 |
| SSSNLG | inactive |
| LNVHCAGCCANWPLC | 9.041 ± 0.026 |
| ACNLRAVYFT | -1.47 ± 0.39 |
| PGIVRGPYYGNMVIFLLKMF | 2.89 ± 0.19 |

| Substance | amyloid nucleation score |
| --- | --- |
| PLDLYSVSIISLFEYIGVVR | -0.948 ± 1 |
| EITSKMSSWGSLTASALTIS | -0.104 ± 0.48 |
| ARMIVCPTVFAIPWYNNSFI | -1.47 ± 0.78 |
| YSQFITGFGNNRHLTLSLAG | 0.389 ± 0.5 |
| FSNVLRFSIA | -1.27 ± 0.45 |
| FSSCSDRLGHGLNSLTKHLI | -0.737 ± 0.39 |
| LQDLTWRLCFKVWCDHSPEN | 4.08 ± 0.091 |
| AVINPPKHVVCCFD | -0.189 ± 0.23 |
| VSLWLYISMQCTRLSRRDQG | 0.22 ± 0.65 |
| TVRLFFLG | 3.98 ± 0.11 |
| TYTMGRHNFVMSLSFFSHSA | 4.861 ± 0.044 |
| MILHCGASKGIPFLFGKDFL | -0.208 ± 0.16 |
| VLFVTVPLSMVIMVSQT | -0.277 ± 1 |
| CKWEFKWPYWGDYLVFMCK | -0.679 ± 1.1 |
| SYVCRIERADVACWVKEEGA | 0.857 ± 0.28 |
| TYKMKNMGICIYRYARLGDC | 0.372 ± 0.74 |
| RRHEPVPSSK | 0.398 ± 0.66 |
| SYTNLGPAGCVALSKYSVIR | -1.18 ± 1.1 |
| LLSECWLESGPSGASTC | 1.5 ± 0.5 |
| AISCSVTWNVTMTSGLTPLC | 1.17 ± 0.37 |
| CLLGMYIVTDTARMTVCVGL | 0.444 ± 0.49 |
| QLFHAWTTWPSGDHNIAWRY | 3.3 ± 0.14 |
| HLMLRKGLVKCWVQTVVGSG | 1.48 ± 0.33 |
| HLGRYAVKMCYWKGLFFYNN | 0.29 ± 0.74 |
| APRCALQLGS | 1.27 ± 0.28 |

| Substance | amyloid nucleation score |
| --- | --- |
| NHSVYVYMLMALTTWGVLSS | -0.403 ± 0.79 |
| WLKNKLMLVLFTESLPNRSP | -1.02 ± 0.61 |
| KAEHVFFVYRGLTEVFASGL | inactive |
| LLLKPMFRVIILMYARVCMY | -1.08 ± 1.1 |
| FLYRVNAKWVWLRGLSLWQW | 0.252 ± 0.23 |
| RVQAGFIRAGCNIEARKFSG | -0.48 ± 0.28 |
| NLEPKNCCCCETFFISYIPT | 1.09 ± 0.35 |
| WNHGIWS | 1.03 ± 0.37 |
| VDIGENLEFCIVLSQ | -0.19 ± 0.55 |
| ACANYGRVVWSSWDW | 0.388 ± 0.39 |
| SPVLIAYQGMAKDWGLVING | 0.139 ± 0.56 |
| DYSVEGHLRMLLNKKRVGVE | -1.01 ± 0.76 |
| KLYWGNWWCRGSLVDTI | 0.695 ± 0.66 |
| MHCIFSNLV | inactive |
| SPKMF | -0.564 ± 0.46 |
| IFLIK | -0.249 ± 1.1 |
| VSMSRGL | inactive |
| NEHMIHIKSDLRYSAESKPY | 0.503 ± 0.18 |
| GTSLYGFSPTAHVRVSHRGE | 0.957 ± 0.47 |
| LSMTKLGVIGTSCNFLLW | inactive |
| CHACLWRETRVRTCVSAEHH | 1.65 ± 0.35 |
